Key:
TRIM21 [1] = molecular target: TRIM21 (UniProt P19474); test: S-tag pull-down after in vitro kinase assay; settings: sites S386
TRIM21 [2] = molecular target: TRIM21 (UniProt P19474); test: SFB-TRIM21 pull-down from cells, Flag blot; settings: reference: WT Flag-rPFKP, EGF; sites S386

## PFKP (phosphofructokinase 1 platelet isoform) (from UniProt Q01813) PFKP S386A incubated with active GST-AKT1
TRIM21 [1]; reference: WT PFKP incubated with active GST-AKT1
  binding against the reference: stronger

## PFKP (phosphofructokinase 1 platelet isoform) (from UniProt Q01813) WT PFKP incubated with active GST-AKT1
TRIM21 [1]; reference: WT PFKP without AKT1
  binding against the reference: weaker

## PFKP (phosphofructokinase 1 platelet isoform) (from UniProt Q01813) Flag-rPFKP S386A, EGF
TRIM21 [2]
  binding against the reference: stronger

— PMC5643558
